Paper PMC11285941

Biological target: ALTO with a NanoBiT tag at its N-terminus (Merkel cell polyomavirus)
Experiment: split reporter (BiFC, NanoBiT); NanoBiT in live HEK293 cells, 50 ng LgBiT + 50 ng SmBiT plasmid, 20-24 hours after transfection, NanoGlo reagent, luminescence; an interaction counts when the reading is tenfold above the LgBiT construct with the SmBiT negative control

Molecule: STING-LgBiT (from UniProt Q86WV6 1-379) (natural protein)
- luminescence against the LgBiT-tagged construct with the SmBiT negative control: > 10 fold

B1: LgBiT-TBK1 (enzyme)
chain: MQSTSNHLWLLSDILGQGATANVFRGRHKKTGDLFAIKVFNNISFLRPVDVQMREFEVLKKLNHKNIVKLFAIEEETTTRHKVLIMEFCPCGSLYTVLEEPSNAYGLPESEFLIVLRDVVGGMNHLRENGIVHRDIKPGNIMRVIGEDGQSVYKLTDFGAARELEDDEQFVSLYGTEEYLHPDMYERAVLRKDHQKKYGATVDLWSIGVTFYHAATGSLPFRPFEGPRRNKEVMYKIITGKPSGAISGVQKAENGPIDWSGDMPVSCSLSRGLQVLLTPVLANILEADQEKCWGFDQFFAETSDILHRMVIHVFSLQQMTAHKIYIHSYNTATIFHELVYKQTKIISSNQELIYEGRRLVLEPGRLAQHFPKTTEENPIFVVSREPLNTIGLIYEKISLPKVHPRYDLDGDASMAKAITGVVCYACRIASTLLLYQELMRKGIRWLIELIKDDYNETVHKKTEVVITLDFCIRNIEKTVKVYEKLMKINLEAAELGEISDIHTKLLRLSSSQGTIETSLQDIDSRLSPGGSLADAWAHQEGTHPKDRNVEKLQVLLNCMTEIYYQFKKDKAERRLAYNEEQIHKFDKQKLYYHATKAMTHFTDECVKKYEAFLNKSEEWIRKMLHLRKQLLSLTNQCFDIEEEVSKYQEYTNELQETLPQKMFTASSGIKHTMTPIYPSSNTLVEMTLGMKKLKEEMEGVVKELAENNHILERFGSLTMDGGLRNVDCL
- luminescence against the LgBiT-tagged construct with the SmBiT negative control: > 10 fold
